Assay results as given in US20150197561A1 (ONCOMED PHARMACEUTICALS, published 2015).
Numbering of substitutions follows the chain as printed. Where two headings read alike, the source gives them in different places.

B1: Fab 64R7 (Fab, V domains shown)
VH: QVQLVESGGGVVQPGRSLRLSCAASGFTFSSYAMHWVRQAPGKGLEWVAVISYDGSNKYYADSVKGRFTISRDNSKNTLYLQMNSLRAEDTAVYYCARDKYDIPDAFDIWGQGTLVTVSS
VL: DIRMTQSPSSLSASVGDRVTITCRASQGISNDLAWYQQKPGKVPRLLIYATSTLQSGVPSRFSGSGSATDFTLTISSLQPEDVATYYCQQSYNAPITFGQGTRLEIK
notes: Fab from a human Fab phage library; also called 64R7 Fab
B2: antibody 64M51 (antibody, mouse IgG1, kappa, V domains shown)
VH: QVQLKQSGAELVRPGTSVKLSCKTSGYIFTSYWIHWVKQRSGQGLEWIARIYPGIGSTYYNEKFKDKATLTADKSSSTAYMQLSSLKSEDSAVYFCAKNGGFFDYWGQGTTLTVSS
VL: DIVLTQSPASLAVSLGQRATISCRASESVDSYGNSFMHWYQQKPGQPPKLLIYRASNLESGIPARFSGSGSRTDFTLTINPVEADDVATYYCQQSNEDPWTFGGGTKLEIKR
notes: Mouse hybridoma monoclonal raised against mouse Jagged1 ECD-His; also called anti-Jagged 64M51; ATCC PTA-10468
B3: 64R7 IgG2 antibody (antibody, V domains shown)
VH: B1 VH
VL: DIRMTQSPSSLSASVGDRVTITCRASQGISNDLAWYQQKPGKVPRLLIYATSTLQSGVPSRFSGSGSATDFTLTISSLQPEDVATYYCQQSYNAPITFGQGTRLEIKR
notes: Human IgG2 / kappa, expressed in CHO cells; also called antibody 64R7; ATCC PTA-10470
B4: 64R1B IgG2 antibody (antibody, V domains shown)
VH: QVQLQESGPGLVKPSGTLSLTCTVSGDSISSSNWWSWVRQPPGQGLEWIGEIFHGENTNYNPSLKSRVTISVDKSKNQISLNLTSATAADTAVYYCARNPGIGAAKFDSWGQGTLVTVSS
VL: DIVMTQTPLSLSVTPGQPASISCKSSQSLLHSDGKTYLYWYLQKPGQPPQLLIYEVSNRFSGVPDRFSGSGSGTDFTLKISRVEAEDVGVYYCMQHIDFPFTFGQGTKLEIKR
notes: Human IgG2 / kappa, expressed in CHO cells; also called antibody 64R1B; ATCC PTA-10469
B5: antibody 133R0201 (antibody, V domains shown)
VH: QVQLVESGGGVVQPGRSLRLSCAASGFTFSSYAMHWVRQAPGKGLEWVAAIYPDSSNKYYADSVKGRFTISRDNSKNTLYLQMNSLRAEDTAVYYCARDKYDIPDAFDIWGQGTLVTVS
VL: B1 VL
B6: antibody 133R0203 (antibody, V domains shown)
VH: B5 VH with Y52S, D54E, S55A
VL: B1 VL
B7: antibody 133R0205 (antibody, V domains shown)
VH: B5 VH with D54A
VL: B1 VL

Columns and labels:
[1] = biological target: T1, human Jagged1-Fc (extracellular domain of human Jagged1 fused to human Fc) (human, UniProt P78504 34-1067); assay: phage display output screened by ELISA on recombinant human Jagged1 ECD-Fc; 64R7 named as one of the Fabs in paragraph 226
T1 construct: also called hJag1; human Jagged1 ECD-Fc; not shown: human Fc
Procedure: Phage display was used to identify specific Fabs that bind to the extracellular domain of human Jagged1. 2×10¹³ Fab displaying phage particles from a human Fab phage library were incubated with passively immobilized recombinant human Jagged1 ECD protein fused with a human Fc domain. The non-binding phage were washed off, phage bound to the Jagged1 protein were eluted with 100 mM glycine, […] pH2.2 and the elutant was neutralized with 1/10 volume of 2M Tris base. The eluted output phage were used to infect TG1 F+ bacteria and rescued with helper phage. The output of rescued round one served as the starting point for further selection rounds. The selections were continued to round 3, and then the output was screened in ELISA for Fabs specifically binding to recombinant human Jagged1 ECD-Fc protein. Several Fabs that specifically bound to human Jagged1 were identified.

[2] = biological target: T2, mouse Jagged1-His (extracellular domain of mouse Jagged1, aa 1-1060, with histidine tag) (mouse, UniProt Q9QXX0 34-1060); assay: SPR, Biacore 2000; Jagged protein amine-coupled to CM5 chip, antibody injected 100-1.0 nM, global fit
T2 construct: made in insect cells; also called mJag1; Mouse Jagged 1 ECD His-tagged
Procedure: (§1) The KDs of 64M51, 64R7 and 64R1B antibodies were determined using a Biacore 2000 system from Biacore Lifescience (GE Healthcare). Recombinant Jagged proteins human Jagged1-Fc (hJag1), mouse Jagged1-His (mJag1), human Jagged2-Fc (hJag2) and mouse Jagged2-Fc (mJag2) were immobilized on a CM5 chip using standard amine-based chemistry (NHS/EDC). Antibodies were serially diluted in 2-fold increments from 100 to 1.0 nM in HBS-P (0.01M HEPES pH7.4, 0.15M NaCl, 0.005% v/v Surfactant P20) and were injected over the chip surface. Kinetic data were collected over time and were fit using the simultaneous global fit equation to yield affinity constants (KD values) for each antibody (Table 3).

[3] = biological target: T3, mouse Jagged2-Fc (extracellular domain of mouse Jagged2 fused to human Fc) (mouse, UniProt Q9QYE5 24-1082); assay: as above
T3 construct: extracellular domain; also called mJag2; not shown: human Fc
T3 sequence (Q9QYE5 24-1082): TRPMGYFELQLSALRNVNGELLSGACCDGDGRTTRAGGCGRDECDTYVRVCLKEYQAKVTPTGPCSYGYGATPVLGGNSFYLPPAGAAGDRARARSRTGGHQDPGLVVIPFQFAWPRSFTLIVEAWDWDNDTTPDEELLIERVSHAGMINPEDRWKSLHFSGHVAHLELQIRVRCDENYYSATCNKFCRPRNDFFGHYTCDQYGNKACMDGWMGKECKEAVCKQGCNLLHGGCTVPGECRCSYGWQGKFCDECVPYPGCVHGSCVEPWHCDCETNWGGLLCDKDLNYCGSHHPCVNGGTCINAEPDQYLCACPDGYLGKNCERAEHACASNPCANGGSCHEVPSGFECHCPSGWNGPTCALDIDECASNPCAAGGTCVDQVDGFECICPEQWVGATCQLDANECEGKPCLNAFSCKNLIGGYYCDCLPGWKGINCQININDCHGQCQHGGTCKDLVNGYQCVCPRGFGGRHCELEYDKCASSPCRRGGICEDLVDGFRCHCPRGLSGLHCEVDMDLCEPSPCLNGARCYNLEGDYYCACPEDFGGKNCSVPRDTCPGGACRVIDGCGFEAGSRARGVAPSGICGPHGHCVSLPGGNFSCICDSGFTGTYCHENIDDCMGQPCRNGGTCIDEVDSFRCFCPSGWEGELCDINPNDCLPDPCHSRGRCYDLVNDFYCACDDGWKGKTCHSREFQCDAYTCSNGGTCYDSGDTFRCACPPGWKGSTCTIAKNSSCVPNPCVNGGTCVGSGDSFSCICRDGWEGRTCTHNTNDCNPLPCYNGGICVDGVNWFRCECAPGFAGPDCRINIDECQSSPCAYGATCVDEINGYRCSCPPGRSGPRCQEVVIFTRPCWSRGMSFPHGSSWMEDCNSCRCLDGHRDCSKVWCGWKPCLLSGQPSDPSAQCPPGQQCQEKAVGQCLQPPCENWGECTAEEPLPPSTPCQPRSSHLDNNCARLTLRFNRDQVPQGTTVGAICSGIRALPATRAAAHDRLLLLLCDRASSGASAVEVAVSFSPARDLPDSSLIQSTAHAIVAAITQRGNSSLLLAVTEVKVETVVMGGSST
Procedure: as §1

[4] = biological target: T4, human Jagged2-Fc (extracellular domain of human Jagged2 fused to human Fc) (human, UniProt Q9Y219 27-1080); assay: as above
T4 construct: also called hJag2; not shown: human Fc
T4 sequence (Q9Y219 27-1080 E501K): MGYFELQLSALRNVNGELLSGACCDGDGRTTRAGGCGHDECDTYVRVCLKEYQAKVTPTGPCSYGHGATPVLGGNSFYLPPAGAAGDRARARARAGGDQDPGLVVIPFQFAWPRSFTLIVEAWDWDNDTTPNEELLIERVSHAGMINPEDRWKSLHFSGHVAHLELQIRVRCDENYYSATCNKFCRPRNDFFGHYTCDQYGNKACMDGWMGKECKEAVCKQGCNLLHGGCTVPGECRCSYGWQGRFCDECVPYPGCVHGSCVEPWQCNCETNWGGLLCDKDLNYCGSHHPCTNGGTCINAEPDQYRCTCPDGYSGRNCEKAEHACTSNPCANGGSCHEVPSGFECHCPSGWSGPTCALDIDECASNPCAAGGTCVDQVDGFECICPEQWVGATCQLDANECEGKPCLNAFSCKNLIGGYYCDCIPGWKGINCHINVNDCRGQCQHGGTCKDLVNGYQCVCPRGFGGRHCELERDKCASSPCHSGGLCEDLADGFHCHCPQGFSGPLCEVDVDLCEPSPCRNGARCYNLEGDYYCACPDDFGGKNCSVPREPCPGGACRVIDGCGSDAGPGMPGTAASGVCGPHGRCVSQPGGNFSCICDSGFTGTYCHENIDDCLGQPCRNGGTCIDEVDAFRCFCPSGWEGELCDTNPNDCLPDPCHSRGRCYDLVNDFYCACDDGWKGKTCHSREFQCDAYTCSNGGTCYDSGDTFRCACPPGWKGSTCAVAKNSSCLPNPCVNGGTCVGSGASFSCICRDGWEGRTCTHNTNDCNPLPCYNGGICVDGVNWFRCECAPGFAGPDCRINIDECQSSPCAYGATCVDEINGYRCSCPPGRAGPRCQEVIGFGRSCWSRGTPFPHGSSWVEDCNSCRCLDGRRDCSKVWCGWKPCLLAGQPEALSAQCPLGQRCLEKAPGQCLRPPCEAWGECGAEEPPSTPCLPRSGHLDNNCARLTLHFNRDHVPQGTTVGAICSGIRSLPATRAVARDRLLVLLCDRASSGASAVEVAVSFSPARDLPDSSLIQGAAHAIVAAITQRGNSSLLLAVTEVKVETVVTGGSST
Procedure: as §1

[5] = biological target: T1, human Jagged1-Fc (extracellular domain …); assay: as above
Procedure: as §1

[6] = biological target: T2, mouse Jagged1-His (extracellular domain …); assay: as above; remark: listed apart in the source
Procedure: as §1, with “antibodies 133R0201, 133R0203” for “64M51, 64R7”, “133R0205” for “64R1B antibodies”, “Healthcare) and compared to K, of antibody 64R7. As described above in Example 4, recombinant” for “Healthcare). Recombinant”, “(K,” for “(KD”, “5).” for “3).”

[7] = biological target: T3, mouse Jagged2-Fc (extracellular domain …); assay: as above; remark: listed apart in the source
Procedure: as §1, with “antibodies 133R0201, 133R0203” for “64M51, 64R7”, “133R0205” for “64R1B antibodies”, “Healthcare) and compared to K, of antibody 64R7. As described above in Example 4, recombinant” for “Healthcare). Recombinant”, “(K,” for “(KD”, “5).” for “3).”

[8] = biological target: T4, human Jagged2-Fc (extracellular domain …); assay: as above; remark: listed apart in the source
Procedure: as §1, with “antibodies 133R0201, 133R0203” for “64M51, 64R7”, “133R0205” for “64R1B antibodies”, “Healthcare) and compared to K, of antibody 64R7. As described above in Example 4, recombinant” for “Healthcare). Recombinant”, “(K,” for “(KD”, “5).” for “3).”

[9] = biological target: T1, human Jagged1-Fc (extracellular domain …); assay: SPR, Biacore 2000; Jagged protein amine-coupled to CM5 chip, antibody injected 100-1.0 nM, global fit; Example 13 run (Table 5), compared with 133R0201, 133R0203, 133R0205; separate experiment from Table 3
Procedure: as §1, with “antibodies 133R0201, 133R0203” for “64M51, 64R7”, “133R0205” for “64R1B antibodies”, “Healthcare) and compared to K, of antibody 64R7. As described above in Example 4, recombinant” for “Healthcare). Recombinant”, “(K,” for “(KD”, “5).” for “3).”

[10] = biological target: T5, mouse Jagged2 expressed on HEK293 cells (mouse, UniProt Q9QYE5 24-1247); assay: flow cytometry on transfected HEK293 cells
T5 construct: whole, on cells
T5 sequence (Q9QYE5 24-1247): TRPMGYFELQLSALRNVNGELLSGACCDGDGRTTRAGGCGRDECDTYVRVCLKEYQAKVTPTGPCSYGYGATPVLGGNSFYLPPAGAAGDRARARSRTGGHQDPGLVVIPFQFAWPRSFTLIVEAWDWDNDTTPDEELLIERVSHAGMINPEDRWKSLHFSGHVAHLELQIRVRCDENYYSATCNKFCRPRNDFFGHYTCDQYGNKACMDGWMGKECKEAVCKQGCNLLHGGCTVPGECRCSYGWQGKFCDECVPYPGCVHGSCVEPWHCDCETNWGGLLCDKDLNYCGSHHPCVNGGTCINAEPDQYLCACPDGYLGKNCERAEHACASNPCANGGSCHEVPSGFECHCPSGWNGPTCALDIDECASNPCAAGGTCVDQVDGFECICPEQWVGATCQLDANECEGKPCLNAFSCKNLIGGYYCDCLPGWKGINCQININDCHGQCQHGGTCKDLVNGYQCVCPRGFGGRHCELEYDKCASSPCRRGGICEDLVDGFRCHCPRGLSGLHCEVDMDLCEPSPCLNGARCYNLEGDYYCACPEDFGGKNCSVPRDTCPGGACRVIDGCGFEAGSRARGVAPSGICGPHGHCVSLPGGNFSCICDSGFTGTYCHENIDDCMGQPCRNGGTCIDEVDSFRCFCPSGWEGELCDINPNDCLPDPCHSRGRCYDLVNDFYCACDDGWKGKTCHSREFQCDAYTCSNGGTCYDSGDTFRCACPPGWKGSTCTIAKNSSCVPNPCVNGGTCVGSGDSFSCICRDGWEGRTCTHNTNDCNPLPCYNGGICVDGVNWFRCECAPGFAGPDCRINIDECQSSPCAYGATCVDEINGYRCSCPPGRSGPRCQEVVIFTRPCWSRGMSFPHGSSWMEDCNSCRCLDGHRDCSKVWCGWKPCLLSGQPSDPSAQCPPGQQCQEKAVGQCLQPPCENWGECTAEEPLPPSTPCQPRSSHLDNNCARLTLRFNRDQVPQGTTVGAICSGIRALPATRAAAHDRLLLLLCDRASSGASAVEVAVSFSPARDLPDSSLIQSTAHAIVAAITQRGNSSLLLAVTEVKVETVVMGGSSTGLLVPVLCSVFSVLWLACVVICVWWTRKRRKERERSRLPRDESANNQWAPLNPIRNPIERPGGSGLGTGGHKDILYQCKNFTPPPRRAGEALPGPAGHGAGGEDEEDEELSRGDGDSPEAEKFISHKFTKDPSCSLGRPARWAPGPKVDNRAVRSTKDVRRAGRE

[11] = biological target: T6, human Jagged2, full-length, expressed on transfected cells (human, UniProt Q9Y219 24-1238); assay: flow cytometry on transfected HEK293 cells
T6 construct: Full-length cDNA transfected into HEK293 cells (FACS) or PC3 cells (two cell population reporter assay); also called hJagged2; hJag2
T6 sequence (Q9Y219 24-1238 E501K limits assumed): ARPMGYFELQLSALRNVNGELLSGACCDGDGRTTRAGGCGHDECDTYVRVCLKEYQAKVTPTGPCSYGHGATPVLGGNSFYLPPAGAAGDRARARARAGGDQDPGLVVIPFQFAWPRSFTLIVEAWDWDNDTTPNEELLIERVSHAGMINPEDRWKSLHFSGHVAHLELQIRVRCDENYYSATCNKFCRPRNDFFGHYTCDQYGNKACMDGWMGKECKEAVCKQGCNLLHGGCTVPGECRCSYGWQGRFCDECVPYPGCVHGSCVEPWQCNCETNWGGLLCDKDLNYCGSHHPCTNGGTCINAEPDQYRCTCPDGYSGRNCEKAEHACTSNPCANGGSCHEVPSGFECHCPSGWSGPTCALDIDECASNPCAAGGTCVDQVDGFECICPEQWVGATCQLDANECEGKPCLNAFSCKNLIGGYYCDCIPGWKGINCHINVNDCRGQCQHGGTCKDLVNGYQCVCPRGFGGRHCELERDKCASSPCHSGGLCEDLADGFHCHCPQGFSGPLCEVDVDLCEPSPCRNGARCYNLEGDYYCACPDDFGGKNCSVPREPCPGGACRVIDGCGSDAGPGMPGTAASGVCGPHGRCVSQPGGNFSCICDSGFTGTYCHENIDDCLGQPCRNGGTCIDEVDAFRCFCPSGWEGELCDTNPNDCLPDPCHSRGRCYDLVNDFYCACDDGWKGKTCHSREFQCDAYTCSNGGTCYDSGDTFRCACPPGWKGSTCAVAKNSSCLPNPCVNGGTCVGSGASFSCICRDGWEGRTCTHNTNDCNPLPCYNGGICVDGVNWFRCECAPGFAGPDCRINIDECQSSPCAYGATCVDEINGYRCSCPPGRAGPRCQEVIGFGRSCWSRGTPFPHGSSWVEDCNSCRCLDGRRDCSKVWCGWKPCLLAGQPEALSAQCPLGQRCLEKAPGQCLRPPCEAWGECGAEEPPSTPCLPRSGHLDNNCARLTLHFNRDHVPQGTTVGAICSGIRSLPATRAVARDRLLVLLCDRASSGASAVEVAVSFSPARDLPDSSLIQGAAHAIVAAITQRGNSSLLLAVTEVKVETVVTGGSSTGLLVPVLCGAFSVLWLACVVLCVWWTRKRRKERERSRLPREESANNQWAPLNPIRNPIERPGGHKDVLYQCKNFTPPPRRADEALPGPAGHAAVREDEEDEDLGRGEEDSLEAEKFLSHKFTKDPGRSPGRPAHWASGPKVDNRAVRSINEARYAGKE

[12] = biological target: T3, mouse Jagged2-Fc (extracellular domain …); assay: SPR, Biacore 2000; Jagged protein on CM5 chip, antibody injected
Procedure: as §1

[13] = biological target: T4, human Jagged2-Fc (extracellular domain …); assay: as above
Procedure: as §1

[14] = biological target: T1, human Jagged1-Fc (extracellular domain …); assay: SPR, Biacore 2000; Jagged protein amine-coupled to CM5 chip, antibody injected 100-1.0 nM, global fit; remark: listed apart in the source
Procedure: as §1, with “antibodies 133R0201, 133R0203” for “64M51, 64R7”, “133R0205” for “64R1B antibodies”, “Healthcare) and compared to K, of antibody 64R7. As described above in Example 4, recombinant” for “Healthcare). Recombinant”, “(K,” for “(KD”, “5).” for “3).”

Row | Binder | Kd [2] [nM] | Kd [5] [nM] | Kd [6] [nM] | Kd [7] [nM] | Kd [8] [nM] | Kd [14] [nM] | other results
1 | B1 |  |  |  |  |  |  | binding result [1]: binds
2 | B2 | 33 | 30 |  |  |  |  | Kd [3]: 7.9 nM; Kd [4]: 6.2 nM
3 | B3 | 10.5 | 5.9 | 4.8 | 9.6 | 10 |  | Kd [9]: 1.7 nM; Kd [3]: 20.6 nM; Kd [4]: 8.3 nM
4 | B4 | 0.82 | 0.61 |  |  |  |  | binding result [10]: no binding (tested: 10 µg/ml); binding result [11]: no binding (tested: 10 µg/ml); binding result [12]: no binding (tested: No binding detected at 100 nM); binding result [13]: no binding (tested: No binding detected at 100 nM)
5 | B5 |  |  | 0.8 | 3.2 | 2.9 | 0.76 | 
6 | B6 |  |  | 1.6 | 3.8 | 3.7 | 1.4 | 
7 | B7 |  |  | 1.5 | 4.8 | 5.8 | 1.2 | 
